Results on 1 molecule are retold here after PMC5076501.

One assay concerns the target HSP70-1A, P0DMV8. In words: co-immunoprecipitation (anti-GFP IP) with immunoblot densitometry. As to conditions: chain shown with the change; detergent lysates from stably transfected HEK293 cells; three independent experiments; parent: est. 0.32; read off a plot.
In the next assay the target is T1, calnexin, P27824.
T1 chain: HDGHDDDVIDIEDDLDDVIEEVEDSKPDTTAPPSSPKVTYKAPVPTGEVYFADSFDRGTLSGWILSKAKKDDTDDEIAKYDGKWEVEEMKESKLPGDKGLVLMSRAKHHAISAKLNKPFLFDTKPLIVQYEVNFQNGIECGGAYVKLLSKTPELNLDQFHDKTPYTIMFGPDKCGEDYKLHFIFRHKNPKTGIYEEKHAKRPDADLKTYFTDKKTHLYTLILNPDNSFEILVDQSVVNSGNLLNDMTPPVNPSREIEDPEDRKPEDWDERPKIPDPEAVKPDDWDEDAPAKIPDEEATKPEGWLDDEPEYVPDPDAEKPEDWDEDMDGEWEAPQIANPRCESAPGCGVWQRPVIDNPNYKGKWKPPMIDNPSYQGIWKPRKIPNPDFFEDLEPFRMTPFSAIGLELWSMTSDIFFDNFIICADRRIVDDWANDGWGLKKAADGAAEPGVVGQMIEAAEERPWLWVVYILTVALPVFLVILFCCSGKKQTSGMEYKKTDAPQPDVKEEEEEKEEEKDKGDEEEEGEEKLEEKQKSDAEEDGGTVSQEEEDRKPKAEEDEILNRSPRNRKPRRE
Described as above. As to conditions: chain shown with the change; detergent lysates from stably transfected HEK293 cells; three independent experiments; parent: est. 0.73; read off a plot.

Chain of HSP70-1A, P0DMV8 (P0DMV8 whole entry): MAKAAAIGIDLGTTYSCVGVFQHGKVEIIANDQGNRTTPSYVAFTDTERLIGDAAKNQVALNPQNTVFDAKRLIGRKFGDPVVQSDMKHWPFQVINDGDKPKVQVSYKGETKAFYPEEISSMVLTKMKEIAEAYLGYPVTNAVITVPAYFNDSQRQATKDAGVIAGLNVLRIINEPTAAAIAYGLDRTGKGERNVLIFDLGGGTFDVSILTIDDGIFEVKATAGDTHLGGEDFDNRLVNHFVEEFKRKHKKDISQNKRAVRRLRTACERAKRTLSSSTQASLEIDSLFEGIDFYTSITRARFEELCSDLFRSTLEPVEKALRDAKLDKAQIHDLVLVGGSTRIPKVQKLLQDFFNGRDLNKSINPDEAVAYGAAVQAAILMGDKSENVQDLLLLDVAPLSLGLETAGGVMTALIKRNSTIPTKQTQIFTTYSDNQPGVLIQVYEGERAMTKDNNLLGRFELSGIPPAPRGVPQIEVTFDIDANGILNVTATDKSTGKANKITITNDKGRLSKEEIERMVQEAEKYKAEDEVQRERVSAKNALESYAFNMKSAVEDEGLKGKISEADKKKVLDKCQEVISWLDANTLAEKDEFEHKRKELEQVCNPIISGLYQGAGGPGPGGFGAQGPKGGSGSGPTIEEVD

B1: YFP-tagged wild-type Drosophila melanogaster dopamine transporter, Q7K4Y6 G108Q (protein)
chain: MSPTGHISKSKTPTPHDNDNNSISDERETWSGKVDFLLSVIGFAVDLANVWRFPYLCYKNGGGAFLVPYGIMLVVGGIPLFYMELALGQHNRKGAITCWGRLVPLFKQIGYAVVLIAFYVDFYYNVIIAWSLRFFFASFTNSLPWTSCNNIWNTPNCRPFESQNASRVPVIGNYSDLYAMGNQSLLYNETYMNGSSLDTSAVGHVEGFQSAASEYFNRYILELNRSEGIHDLGAIKWDMALCLLIVYLICYFSLWKGISTSGKVVWFTALFPYAVLLILLIRGLTLPGSFLGIQYYLTPNFSAIYKAEVWVDAATQVFFSLGPGFGVLLAYASYNKYHNNVYKDALLTSFINSATSFIAGFVIFSVLGYMAHTLGVRIEDVATEGPGLVFVVYPAAIATMPASTFWALIFFMMLLTLGLDSSFGGSEAIITALSDEFPKIKRNRELFVAGLFSLYFVVGLASCTQGGFYFFHLLDRYAAGYSILVAVFFEAIAVSWIYGTNRFSEDIRDMIGFPPGRYWQVCWRFVAPIFLLFITVYGLIGYEPLTYADYVYPSWANALGWCIAGSSVVMIPAVAIFKLLSTPGSLRQRFTILTTPWRDQQSMAMVLNGVTTEVTVVRLTDTETAKEPVDV
For B1, the response (integrated density (chaperones/DAT)) turned out to be 0.73 with HSP70-1A, P0DMV8 and 1.7 with calnexin, P27824.
